Assay results reported in patent US20260234247A1 (published 2026).

B1: LK-RB1-2 (antibody, human IgG4 S228P, kappa, V domains shown)
VH: QIQLVQSGPELKKPGETVKISCKASGYTFTTYGVSWVKQAPGKGLKWMGWINTYSGVSTYSDDFKGRFAFSLETSASTAYLQIINLKNEDAATYFCSRRRRTYDGYLSFDYWGQGTTLTVSS
VL: DIQMTQSPGSLSASVGETVTITCGASENIYGALNWFQRKPGKSPQLLIYGATNLADGMSSRFSGSGSGRQYSLQISSLRPDDVATYYCQNVLTTPWTFGGGTKVEIKR
B2: LK-RB1-3 (antibody, human IgG4 S228P, kappa, V domains shown)
VH: QVQLQQPGAELVKPGTSVNLSCKASGYTFTSYWIHWVKQRPGRGLEWIGRINPYSSGTRYNEKFKNKATLTVDKPSSTAYMQLTSLTSEDSAVYYCARFDGAPDYFDFWGQGTTLTVSS
VL: DIVMTQSQKFMPTSVGDRVNVTCKASQNVGINVAWYQQKLGQSPKALIYSASYRYSGVPDRFTGSGSGTDFTLTINSVQSEDLADYFCQQYNNYPFTFGSGTKLEIKR
B3: LK-RB1-4 (antibody, human IgG4 S228P, kappa, V domains shown)
VH: QVQLQQPGAELVKPGASVKLPCKTSGYTFTSYWMHWVKQRPGRGLEWIGRIDPHYSGTKYNEKFKNKATMTVDTPSSTAYMQLSSLTSEDSAVYYCARFDGDPYYFDYWGPGTTLTVSS
VL: DIVMTQSQKFMSTSVGDRVSVTCKASQNVGTNVAWYKQKAGQSPKAVIYSASYRYSGVPDRFTGSGSGTDFTLSISNVQSEDLAEYFCQQYNNNPFTFGSGTKLEIKR
B4: LK-RB1-5 (antibody, human IgG4 S228P, kappa, V domains shown)
VH: QVQLQQPGAELVKPGASVKLSCKASGYTFTDFWIHWVKQRPGQGLEWIGMIHPNSGSTNFNEKFRAKATLTVDKSSSTAYMRLSSLTSEDSAVYYCARSGDGYSNPMDYWGQGTSVTVSS
VL: QIVLSQSPAILSASPGEKVTLTCRASSSVSYMHWYQQKPGSSPKPWIYATSNLASGVPVRFSGSGSGTSYSLTISRMQTEDAATYYCQQWRRSPYTFGGGTKLEIKR
B5: LK-RB1-6 (antibody, human IgG4 S228P, kappa, V domains shown)
VH: QIQLVQSGPELKKPGETVKISCKASGYTFTTYGMSWVKQAPGKDLKWMGWINTFSGVPACADDFQGRFDFSAEPSDSTAHLQINNLKNEDTATYFCARRSYYGSRGWYFDVWGTGTTVTVSS
VL: DIVMTQSHKFMSTSVGDRVSITCTASEDVNTAVAWYQQKPGQSPKLLIYWASTRHTGVPDRFTGSGSGTDYTLTISSVQTEDLALYYCQQHYNTPYTFGGGTKLEIKR
B6: LK-RB1-7 (antibody, human IgG4 S228P, kappa, V domains shown)
VH: QIQLVQSGPELKKPGETVKISCKASGYTFTTYGMSWVKQAPGKDLKWMGWINTFSGVPACADDFQGRFDFSAEPSDSTAHLQINNLKNEDTATYFCARRSYYGSRGWYFDVWGTGTTVTVSS
VL: DVQMIQSPSSLSASLGDIVTMTCQASQDTTINLNWFQQKPGKVPKLLIYGASNLEDGVPSRFSGSSFGTDFTLTISSLEDEDMATYFCLQHTYLPRTFGGGTKLEIRR
B7: LK-RB1-8 (antibody, human IgG4 S228P, kappa, V domains shown)
VH: QVQLQQSGAELVRPGTSVKVSCKASGYAFSNYLIEWVKQRPGQGLEWIGVINPGSDGSTYNEKFKGKATLTADKSSNTAYMQLSSLTSEDSAVYFCARGDYGRSYGMDYWGQGTSVTVSS
VL: DIVMTQSQKFMSTTVGDRVSITCKASQNVGTAVVWYQQKPGQSPKLLIYSASNRYTGVPDRFTGSGSGTDFTLTISNMQSEDLADYFCQQYSSYMYTFGGGTKLEIKR
B8: LK-RB1-9 (antibody, human IgG4 S228P, kappa, V domains shown)
VH: QIQLVQSGPELKKPGETVKISCTASGYTFTTYGMSWVKQAPGKGLKWMGWINTYSGVPTYADDFKGRFAFSLETSASTAYLEINNVKNEDTATYFCARRRRTYHGYLCFDYWGQGTTLTVSS
VL: DIQMTQSPVSLSASVGETVTITCETSENIYGALNWYQRKQGKSPQLLIYGATNLADGMSSRFSGSGSGRQYSLEISSLHPDDVASYYCQNVLNTPWTFGGGTKLEIKR
B9: LK-RB1-10 (antibody, human IgG4 S228P, kappa, V domains shown)
VH: QVTLKESGPGILKPSQTLSLTCSFSGFSLSTSGTGVGWIRQPSGKGLEWLAHIWWNDDKYYKPSLKRQLTISKDTSRNQVFLKITSVDTADTATYYCTRTELGRGDYWGQGTSVTVSS
VL: DILLTQSPAILSVSPGERVSFSCRASQSIGTNIHWYQQRMNGSPRLIIKYASELISGIPSRFSGSGSGTDFTLSINSVESEDIADYYCQQSYGWPYTFGGGTKLETKR
B10: LK-RB1-14 (antibody, human IgG4 S228P, kappa, V domains shown)
VH: QVTLKESGPGILKPSQTLSLTCSFSGFSLSTSGMGVGWIRQPSGKGLEWLAHIWWDDDKYYNPSLKSQLTISKDTSRNQVFLKITSVDTADTATYYCARTELGRGDSWGQGTSVTVSS
VL: DILLTQSPAILSVSPGERVSFSCRASQSIGTSIHWYQQRTNGSPRLLIKYASESISGIPSRFSGSGSGTDFTLSINSVESEDIADYYCQQSYSWPYTFGGGTKLEIKR
B11: LK-RB1-11 (antibody, human IgG4 S228P, kappa, V domains shown)
VH: QVTLKESGPGILQPSQTLSLTCSFSGFSLKTSGMSVGWIRQPSGKGLEWLAHIWWNDDKYYNPVLKGRLTISKDTSNNLVFLKIASVVSTDTATYYCVRYGNSHGYWYFDVWGTGTTVTVSS
VL: NIVLTQSPASLAVSLGQRATISCRASESVDSYGNNFIHWYQQKPGQPPKVLIYYASNLEAGVPARFSGSGSRTDFTLTIDPVEAEDAATYYCQQNNEDPYTFGGGTKLEIER
B12: LK-RB1-12 (antibody, human IgG4 S228P, kappa, V domains shown)
VH: QVQLQQSGTELVRPGSSVMISCKASGYAFSTYWMDWVKQRPGQGLEWIGQIYPGDGATNYNGKFKGKATLTADKSSITAYMHLSSLTSEDSAVYFCLRSRDYDGWFFDVWGAGTTVTVSS
VL: DIVMTQSHKFMSTSIGDRVSITCKASQDVSSAVAWYQQKPGQSPKLLIYWASTRHTGVPDRFTGSGSGTDYTLTFSSVQAEDLALYYCQQHYSTPWTFGGGTKLEIKR
B13: LK-RB1-13 (antibody, human IgG4 S228P, kappa, V domains shown)
VH: QVTLKESGPGIVKPSQTLSLTCSFSGFSLSISGTGIGWIRQPSGKGLEWLAHIWWDDDKYYNPSLKSQVTISKDTSTKQVFLNITSVDTADTATYYCTRTELGRGDFWGQGTSVTVSS
VL: DILLTQSPAILSVSPGDRVSFSCRASQSTGTNIHWYQRRTNGSPRLLIKYGSESISGIPSRFSGSGTGTDFTLTINSVESEDIADYYCQQSYSWPYTFGGGTKLEIKR
B14: LK-RB1-15 (antibody, human IgG4 S228P, kappa, V domains shown)
VH: QVTLKESGPGIVKPSQTLSLTCSFSGFSLSISGTGIGWIRQPSGKGLEWLAHIWWDDDKYYNPSLKSQVTISKDTSTKQVFLNITSVDTADTATYYCTRTELGRGDFWGQGTSVTVSS
VL: DILLTQSPAILSVSPGDRVSFSCRASQSIGTNIHWYQRRTNGSPRLLIKYGSESISGIPSRFSGSGTGTDFTLTINSVESEDIADYYCQQSYSWPYTFGGGTKLEIKR
B15: LK-RB1-16 (antibody, human IgG4 S228P, kappa, V domains shown)
VH: QVQLKESGPGLVAPSQSLSITCTVSGFSLISNAISWVRQPPGKGLEWLGVIWGDGNTIYHSALRSRLTISKDNSKSQVFLKLNSLQIDDTATYYCAKANWDGYYFDYWGQGTTLTVSS
VL: DIQMNQSPSSLSASLGDTITITCHASQSVDFWLNWYQQKPGNIPKLLISKASNLHTGVPSRFSGSGSGTTFTLTISSLQPEDIATYYCQQGQSYPLTFGSGTKLEIKR
B16: LK-RB1-18 (antibody, human IgG4 S228P, kappa, V domains shown)
VH: QVQLKESGPGLVAPSQSLSITCTVSGFSLTNSGVTWIRQPPGKGLEWLGVIWGDGSTNYHSALISRLSISKDNSKSQVFLKLNSLQTDDTATYYCAKPHWDYYNMDYWGQGTSVTVSS
VL: DIQMTQTPSSLSASLGDRVTISCRASQDISNYLNWYQQKPDGTVKLLIYFTSRLHSGVPSRFSGSGSGTDYSLTISNLEQEDFATYFCQQGITLPLTFGAGTKLELKR
B17: LK-RB1-19 (antibody, human IgG4 S228P, kappa, V domains shown)
VH: QVQLKESGPGLVAPSQNLSITCTVSGFSLTSYGVSWVRQPPGKGLEWLGIIWGDGNTDYHSALISRLSIRKDNSKSQVFLKLNSLKSDDTATYYCAKPHWEYYTMDYWGQGTSVTVSS
VL: DIQMTQTTSSLSASLGDRVTISCRASQDISNFLNWYQQKPDGTVKLLIYSTSRLHSGVPSRFSGSGSGTDYSLTIANLEQEDVATYFCQQGNTLPLTFGAGTKLELKR

How the values were obtained:
[1] = molecular target: T1, human LILRB1 on CHOK1 cells (human, UniProt Q8NHL6 24-650); experiment: FACS binding, CHOK1-hLILRB1 cells
T1 construct: whole, on cells; also called CHOK1-hLILRB1; CHOK1-LILRB1

[2] = molecular target: T2, human LILRB2 on CHOK1 cells (human, UniProt Q8N423 22-597); experiment: FACS binding, CHOK1-hLILRB2 cells
T2 construct: whole, on cells; also called CHOK1-hLILRB2; CHOK1-LILRB2

[3] = molecular target: T1, human LILRB1 on CHOK1 cells; experiment: cell-based RBA (FACS): blocking of HLA-G binding to CHOK1-hLILRB1 cells

T1 sequence (Q8NHL6 24-650): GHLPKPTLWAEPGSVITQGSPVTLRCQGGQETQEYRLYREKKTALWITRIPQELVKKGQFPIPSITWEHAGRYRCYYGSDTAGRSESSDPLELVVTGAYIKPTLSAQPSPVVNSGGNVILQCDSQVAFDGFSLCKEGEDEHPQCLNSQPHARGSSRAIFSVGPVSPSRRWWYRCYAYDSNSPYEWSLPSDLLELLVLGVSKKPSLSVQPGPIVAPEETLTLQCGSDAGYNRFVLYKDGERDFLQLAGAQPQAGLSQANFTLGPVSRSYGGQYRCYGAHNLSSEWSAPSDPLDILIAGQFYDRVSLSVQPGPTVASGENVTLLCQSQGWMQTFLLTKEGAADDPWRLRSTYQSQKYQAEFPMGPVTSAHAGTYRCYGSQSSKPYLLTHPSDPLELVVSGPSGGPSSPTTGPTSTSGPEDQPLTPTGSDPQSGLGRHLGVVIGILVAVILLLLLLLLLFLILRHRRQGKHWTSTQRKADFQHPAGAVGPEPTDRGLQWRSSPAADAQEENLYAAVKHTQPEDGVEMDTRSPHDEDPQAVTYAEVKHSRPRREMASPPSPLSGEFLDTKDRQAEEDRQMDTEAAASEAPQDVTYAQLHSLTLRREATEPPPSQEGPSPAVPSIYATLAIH
T2 sequence (Q8N423 22-597): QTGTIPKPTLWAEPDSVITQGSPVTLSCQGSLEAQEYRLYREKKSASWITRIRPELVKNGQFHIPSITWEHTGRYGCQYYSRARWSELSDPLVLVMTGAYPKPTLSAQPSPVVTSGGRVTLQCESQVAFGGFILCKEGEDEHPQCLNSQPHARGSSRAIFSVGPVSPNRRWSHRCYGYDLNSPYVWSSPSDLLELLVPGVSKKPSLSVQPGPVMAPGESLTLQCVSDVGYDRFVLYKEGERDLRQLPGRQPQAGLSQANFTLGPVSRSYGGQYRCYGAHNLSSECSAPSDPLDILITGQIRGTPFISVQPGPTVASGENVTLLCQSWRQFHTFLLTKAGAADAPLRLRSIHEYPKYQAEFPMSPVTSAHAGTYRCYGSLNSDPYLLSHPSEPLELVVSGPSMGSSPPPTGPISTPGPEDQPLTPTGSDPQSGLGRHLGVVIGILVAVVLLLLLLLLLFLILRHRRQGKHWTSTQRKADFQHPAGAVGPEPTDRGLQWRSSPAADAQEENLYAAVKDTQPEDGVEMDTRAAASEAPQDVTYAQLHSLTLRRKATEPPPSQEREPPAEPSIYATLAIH

| Binder | EC50 [1] [pM] | binding result [2] | EC50 [3] [pM] | Top Inhibition (%) [3] [%] |
| --- | --- | --- | --- | --- |
| B1 | 280 | no binding | 440 | 81.9 |
| B2 | 1140 | no binding | 2080 | 87 |
| B3 | 1000 | no binding | 1740 | 85.9 |
| B4 | 1400 | no binding | 1970 | 23 |
| B5 | 220 | no binding | 540 | 69.7 |
| B6 | 220 | no binding | 540 | 69.7 |
| B7 | 1140 | no binding | 2560 | 86.9 |
| B8 | 340 | no binding | 780 | 88.1 |
| B9 | 700 | no binding | 1040 | 83.1 |
| B10 | 470 | no binding | 650 | 81.2 |
| B11 | 610 | no binding | 1340 | 78.9 |
| B12 | 170 | no binding | 370 | 79.2 |
| B13 | 200 | no binding | 420 | 81.8 |
| B14 | 640 | no binding | 790 | 67.3 |
| B15 | 810 | no binding | 530 | 98.2 |
| B16 | 580 | no binding | 470 | 98.7 |
| B17 | 300 | no binding | 490 | 98.2 |
